Source: the DeepSol protein solubility set

Test: soluble on expression in E. coli; label from the status in PepcDB or PDB records
In the case of “MKHLKLIVVILATLALGCLIKSPASVKFEIDRTTIPPSGVFHLIVTLNNTGKVGIVDAKLVVEGEEFFIVQSPKLEHPIKVGDSAKLIWTIKGPKIPGNYHFKAYLDIVDELNRVWRGITYETTIKVSSEELKDSVNLNLTVPSKVQGGKIIIVSGEIVNNLTVPVNIVSAEVSAEDLEVIDKEVPNKIDANSKGKVVFKFKVPPRYEKVRMYVIIEYASLQVSGKLIGEKDILIVWKPWELSPEDVKDIYGNLSEWIFYNDIVDGYWEWMYGSKSKIENRTMFRESVEDLLSVANSDVEAAKAVYNHIVTNYVIEKRRIKTLDPQKIMESSSISPTEAEILMVAYLRSLNIPARIVSVYSETDCTYSPFVEAYLSGKWYVIDFNHMFFGTREEFIATRWYPKIYQEITVFGKSLVALKPSPSGHAHEDLTKEYLSITEKALFNHLSKSLDPSTFSQVRIMLNSMNNEDERIFAMFLFTSAKPEEAKQLLEKVHVNELKKTIDAFYKFYRDIPWEEDFRIYWEKLINLYRLEHHHHHH”, the “soluble on expression in E. coli” value is reported as “not soluble”. With “MLEDLIGKAYLESAEDRRRGDRSEEVEAIRKYIRSARRTVVPNWNAEKVDAINDVLRSFNLREAEHLQFNTNWADLTRMPAVTKALMALDISGADLVIARGRLGVPGSGSLLVIMDSRGRLLSAAMSPPHVIHSMEVREAVRSEMTHALERIGFKR” the “soluble on expression in E. coli” value was “soluble”. With “MKKQLCMIALVGATAFGTTGTSWSLDGPPPPEPPPMGKGQEHFLERMASVLKLTDAQQAQIEALISTDAEQNAPLHRQLAENERALREATTAASLDEATVRALAATKGNLMTEMIVSRAKLRNAINAILTAEQRELADRLDPLKYGPPRPRPDRPGMELEHHHHHH” the “soluble on expression in E. coli” value was “soluble”. With “MPPSLRKAVAAAIGGGAIAIASVLITGPSGNDGLEGVSYIPYKDIVGVWTVCHGHTGKDIMLGKTYTKAECKALLNKDLATVARQINPYIKVDIPETMRGALYSFVYNVGAGNFRTSTLLRKINQGDIKGACDQLRRWTYAGGKQWKGLMTRREIEREICLWGQQ” the “soluble on expression in E. coli” value was “soluble”. With “GRRPRTAFTQNQIEVLENVFRVNCYPGIDILEDLAQKLNLELDRIQIWFQNRRAKLKRSHRESQFLM” the “soluble on expression in E. coli” value was “soluble”. With “MMKQIPYGLTDFARIQKDNYYYVDKTMFIERIEMQPAYLFLIRPRRFGKSLTLAMLEAYYDVVYANDFDELFGHLYIGQHPTPKHNCYLIMRFNFSEVSSNVNEVERSFKLHCCSKLRDFVFKYEDLLGKEIWDVLDEEIQQDPGAFLSAINSYASRKGNLPIYLLIDEYDNFTNTILSTYGTEYYQKATHGEGFVRGFFNVIKAATTGTGSALQRMFITGVSPVTMDDVTSGFNIGTNITTDPWFNDLVGFSEAELREMLTYYKEQGVLMQTVDETIVMMKPNYDNYCFSRSRLADCMFNSDMVLYFMKSFVLHGEKPDEIVDPNIRTDFNKLAYLIRLDHGLGENFSVIKEIAEQGEITTDIATHFSALEMTDVRNFKSLLFYFGLLSIKGVDMVGRPILHVPNLVVREQLFSFLIQGYIKHDIFKIDMNRMTMLFENMAFRGDWKPLFNFIAEAIREQSRIREYIEGEAHIKGFLLAYLGMYRYYQLYPEYELNKGFADFLFKPSPSVPVMPPLTYLLEVKYAKAGASEKEIRALADGAREQLLRYSQDELVTEARAKGGLKLITIVWCSWELVLLEEVL” the “soluble on expression in E. coli” value was “not soluble”. For “MSLIEELFDQMSKGNLLLIDMTYDMFNGMQTYIGDPPFKHEYFRKGNKYGEVTLSTVYMGLHSGTHIDLPLHFVPNGESVEKFNIIQFIGYGNVLDLSYKKLGEPISSNDLKKFDDRIKENYVVMLYTGFSATRGKEDFLYNWPYLDSNGADYLVSKKIRAVGIESMSIAGWAGKEYPPRTNWDEVVYVHHKLLSNDIIILESVNNMKKVLEECKNGEALFFYAPLKIVGAEGGPTRLFAICEKREGHHHHHH”, the “soluble on expression in E. coli” value was “not soluble”. For “MGAGMLGNINDIDLRMLRTFCAIVEAGGFTAAQARLNTSLSRLSVLVRDLEVRLGYSLCRRGNGGFQLTEEGQELYDAALGLFSDIARFREQVRGLGGRDREALHLGCVDGVIGQHCLPLPLAIRLFRQRAPEVLLKLHTRRPDELEHAVLEERLQLAVGAFHHRLSGLYYQPLFREEQNLYCGSAHPFFARADDEPTLGEICAADYVGRGYMAENHRPHDLRFNQGTDAYTMEAIATLVFSGTYIGYLPTHYAATWVAEGRMRAIRPRQLAYDSEFHCITRQGHEERPTLTLFLRSLFEAQKQLGVQVPANTNGIARQL”, the “soluble on expression in E. coli” value was “not soluble”. In the case of “MTPPEIDFFPDFIADPHRLFNHLKDSVLWDERMRARKTASFGAPYDYSQITYPAVPMPEALEQLCGPIEQLLGFRPNNCLLNCYPDGHSSMGFHSDANEQLVTGTGVVIVSLGHARAMVFRHKESGATFDYSLASGSLLHMSDELQKHWLHAIPKAPDAGERISLSFRQLKTGLEHHHHHH”, the “soluble on expression in E. coli” value is reported as “soluble”. With “MSAYRHAVERIDSSDLACGVVLHSAPGYPAFPVRLATEIFQRALARLPGDGPVTLWDPCCGSGYLLTVLGLLHRRSLRQVIASDVDPAPLELAAKNLALLSPAGLTARELERREQSERFGKPSYLEAAQAARRLRERLTAEGGALPCAIRTADVFDPRALSAVLAGSAPDVVLTDLPYGERTHWEGQVPAQPVAGLLRSLASALPAHAVIAVTDRSRKIPVAPVKALERLKIGTRSAVLVRAADVLEAGP” the “soluble on expression in E. coli” value was “soluble”. In the case of “MGSDKIHHHHHHMNERLRQGLVAAEGPLSGEVIKDVECVAGGCIHQAWCLQLKGGRQLFAKTGGADALPMLKVEVEGLKALKAWVDPGVLEVPEPLAFDQVCGEAVLLLPWLDFRAGNQASLGRGLALLHRASAAENPGRFGWPVDGFIGAGSQPGGWREQWGDAFVTLRLRPQLREAARWGLDLVDVEPILAALIPWLDRHQPSPSLVHGDLWSGNANVLSDGRGVLLDPATWWADREVDLAMTQLFGGFSQDFYIGYENVWPLPADASQRVEVYNLYHLINHANLFGGSYRNQSQAILNRLASWLLT”, the “soluble on expression in E. coli” value is reported as “not soluble”. In the case of “MEQIGAALQQTLEPDAAIRKRGEEALRSLQSNPGYIIQILQLVVNEQQQIAPQIRIAAAVALKNFVKRNWGPAPEVEMGQEDEEQFRSMLLEAMFNTKSNVQEILSNALYLIAQRDFPEKWPDLVPYLSKFLNGADLNHLVASLASMEQIFRKFRFESKSAELWKELKKCLLSTQEPLTLLLRNMMEVGQRKDQLGADEIAQWLRVLLLIAKVYHSLCSQEIPEYFEDHLKDWMPHFLHLVQIDAPTQTSNSGEPTTLDELKHEICEIFTLYSQRYEEEISEFVPDIILAVWNLLKSTGPDTRYDTMVCAALEFLSMVSQRQYYEGHFTGEGVLKTLAENVCVQNLLLRQQDMELFEDEPLDYMKRDIEGTDVGTRRRGAIDLARGLCRRFEAQMLPCLGEIVQNLLGSGDWIKIDIVYSLITAIAVKTETAKSGVTATNPLVDINDFFITQVATHLNADVNQTPILKADALKFAVTFRKQLAPEHLMTAIKSADALLSSNTPILHKYAAYAIEKILLADSNKIFSAQNLPVSSILQNLVTAFDKDAKAQNSPYLIKAILRIIVILDDDTIRHADAIAVKLAQLVESATKNPADSVHTHFLFETICVLITKTRTIGASLDAQLLPLIEVIFREDLEDLIPYALQITGVLVSSCIARNSSIDQFSPFLPFLLSERLWARSANVPAALSVLEVILSVNAQRVVSENSGLILSHLARLLGSKTLDQYGFQLAATILPSIEHFEGSAMTFVLNTMFRRVQSSKTPKFMKLFIVFLCRFTIARSAQDLVQSCENIQTGMFGMLIEKVVCIDLPGLKQTTTGPEKRIIAIGMGNLLADVTQQLVGQYGILSYEVAMLLEAASASDRAVLSPEEEQASMYNAEGEFVNPFCRLSYAPKQPPVAANIANHKAYFAQAVLVRGPGNCPETLRSVPPEIVTYLQSIQQ”, the “soluble on expression in E. coli” value is reported as “not soluble”. In the case of “MEEHLSVMYERLRQELPKLFLQSHDYSLYSLDVEFINEILNIRTKGRTWYILSLTLCRFLAWNYFAHLRLEVLQLTRHPENWTLQARWRLVGLPVHLLFLRFYKRDKDEHYRTYDAYSTFYLNSSGLICRHRLDKLMPSHSPPTPVKKLLVGALVALGLSEPEPDLNLCSKP”, the “soluble on expression in E. coli” value is reported as “not soluble”. For “MERVNVVGAGLAGSEAAWTLLRLGVPVRLFEMRPKRMTPAHGTDRFAEIVCSNSLGGEGETNAKGLLQAEMRRAGSLVMEAADLARVPAGGALAVDREEFSGYITERLTGHPLLEVVREEVREIPPGITVLATGPLTSEALAEALKRRFGDHFLAYYDAASPIVLYESIDLTKCFRAGRYGQSADYLNCPMTEEEYRRFHQALLEAQRHTPHDWEKLEFFEACVPVEELARRGYQTLLFGPMKPVGLVDPRTGKEPFAVVQLRQEDKAGRMWSLVGFQTGLKWPEQKRLIQMIPGLENAEIVRYGVMHRNTYLNAPRLLGETLEFREAEGLYAAGVLAGVEGYLESAATGFLAGLNAARKALGLPPVAPPEESMLGGLVRYLATANPEGFQPMYANWGLVPPVEGRMGKKEKRQAMYRRGLEAFSAWLSGLNPPLPRPEAALV”, the “soluble on expression in E. coli” value was “soluble”. In the case of “MAGFMKNAMSYLGMSDVVDDEDDYIEEDEEQKPASKSAFDSDHTVTPLASTTAPAASSTTKPFPGGRVNRITTIHPKSYEDAQLVGRALRDGVPVVLNLTGVAEAVAYRIVDFSAGVVFGVRGSLERVTPRVFLLSPAQVNIKVEEPTKPASAHDLFADAAALEHHHHHH”, the “soluble on expression in E. coli” value is reported as “not soluble”. For “MVGVRMTKKVLIVEDNELNMKLFHDLLEAQGYETLQTREGLSALSIARENKPDLILMDIQLPEISGLEVTKWLKEDDDLAHIPVVAVTAFAMKGDEERIREGGCEAYISKPISVVHFLETIKRLLERQPA”, the “soluble on expression in E. coli” value was “soluble”. With “MKQYLELMQKVLDEGTQKNDRTGTGTLSIFGHQMRFNLQDGFPLVTTKRCHLRSIIHELLWFLQGDTNIAYLHENNVTIWDEWADENGDLGPVYGKQWRAWPTPDGRHIDQITTVLNQLKNDPDSRRIIVSAWNVGELDKMACAPSHAFFQFYVADGKLSCQLYQRSCDVFLGLPFNIASYALLVHMMAQQCDLEVGDFVWTGGDTHLYSNHMDQTHLQLSREPRPLPKLIIKRKPESIFDYRFEDFEIEGYDPHPGIKAPVAI” the “soluble on expression in E. coli” value was “soluble”. For “MTRGLDYYEVMGLTRSANDIDIRRAYRRLALKYHPDINKDGAAGDEFLRICEAYEVLCDPKTKGFYDLYGEDALKDGISDGNGGLKGPMYRFNPEESPKAVFERFFGTANPYEALEALSNQFESMTSEEAPARGKNKVYPLELTLEEIFHGCLKKVAHKRKVLLFSGEYVEEERQLTVDVKPGLPTGTRFVFEGEGNKTPKKEPGPVVFVLKPKPHPRFVRRGSDLVHKVTLPLHHALIGTTLDIRTLDDRDLKVPISDIMRPGSSLTVPGEGMPLPATPSARGNLVIEIDLLFPTHLTETQKMLLRSAFF”, the “soluble on expression in E. coli” value was “soluble”. With “LIFTCDKNKLQESIAIAQKAITGKSTMPILEGLYIEASENIVTIIGSDKDVSIETKFEADVTEPGKLVVDAKIFGEIIRKLPNDKIKIETVSEEAIRITCQKSVFDLLHMNAEDFPSLPKINENMIFSINQGILKNMIKGTSFAIAQDETRPILQGILFEIKDSKLNLVALDGYRLAIRTENIDTNNTINAVIPGKTLNEVAKILEDSEEIVNITFTPNHILFNMGDTKVISRLLEGEFIKYDALLPKEHKLQIEVDKQTLQNGIERASLMAKEGNSNLVKFDITDENIVITSNSQLGKVREEVTIKLQGDEIQIAFNSKYLLDVLKNMEEDKIELRMTSSISPCIIRNKNNDLCEYLVLPVRIAR” the “soluble on expression in E. coli” value was “soluble”. For “MIDKQSGIPIYIQIQSEIKKKMEDGVWKVGTSIPAERQLAEMFHVSRMTVRQAIQGLVDDNILQRRVGAGTFIAEKKLTERLEAVTSFTNLMLQEGKVPSTRIVSYGIRPASTQEQEALQLPENSNVMKIERIRYGDRVPILYEVAAIPEKIASLLTKEDIMDSLYKAIELKLGQPIGEAEQIMEASLVSEKIAPYLDVKLGSPVMKLRQITTLEDGRPFEFTRSQYVGSRFQFVARIKQ”, the “soluble on expression in E. coli” value was “not soluble”. For “MSLKTTEYVAEILNELHNSAAYISNEEADQLADHILSSHQIFTAGAGRSGLMAKSFAMRLMHMGFNAHIVGEILTPPLAEGDLVIIGSGSGETKSLIHTAAKAKSLHGIVAALTINPESSIGKQADLIIRMPGSPKDQSNGSYKTIQPMGSLFEQTLLLFYDAVILKLMEKKGLDSETMFTHHANLEEGGSHHHHHH”, the “soluble on expression in E. coli” value was “soluble”.
